# Results: patent US20050058639A1 (AstraZeneca / MedImmune, published 2005)
# T1: recombinant human MCP-2 (human, UniProt P80075 24-99)
# T1 construct: also called rhMCP-2
# T1 sequence (looked up): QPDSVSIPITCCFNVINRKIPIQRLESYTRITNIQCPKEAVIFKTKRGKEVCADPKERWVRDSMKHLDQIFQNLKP
# T2: human GRO/MGSA (human, UniProt P09341 35-107)
# T2 construct: also called hGRO/MGSA; GRO-alpha
# T2 sequence (looked up): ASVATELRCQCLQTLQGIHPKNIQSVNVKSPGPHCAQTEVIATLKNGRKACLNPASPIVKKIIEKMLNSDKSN
# T3: human MIP-1-alpha (human, UniProt P10147 24-92, limits assumed)
# T3 construct: also called hMIP-1-alpha
# T3 sequence (looked up): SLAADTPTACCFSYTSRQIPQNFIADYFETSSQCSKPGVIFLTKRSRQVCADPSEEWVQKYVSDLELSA
# T4: human RANTES (human, UniProt P13501 24-91)
# T4 construct: also called hRANTES
# T4 sequence (looked up): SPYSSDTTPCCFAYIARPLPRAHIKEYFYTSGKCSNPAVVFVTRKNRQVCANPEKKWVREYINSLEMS
# Tests used:
# [1] = target: T5, recombinant mouse JE/MCP-1 (mouse, UniProt P10148 24-148); assay: ELISA, coated antigen
# T5 construct: also called rmJE/MCP-1
# T5 sequence (P10148 24-148 limits assumed): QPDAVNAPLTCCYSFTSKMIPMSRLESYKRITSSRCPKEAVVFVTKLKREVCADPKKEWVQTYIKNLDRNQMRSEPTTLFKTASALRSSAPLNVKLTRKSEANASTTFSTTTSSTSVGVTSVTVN
# Outline: (§1)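 Plates coated overnight at 4° C with MCP-1, MCP-2, MCP-3, MCP-4, RANTES, GRO-alpha, MIP-1 alpha, eotaxin, rat MCP-1 or mouse JE (2 μg/ml, carbonate buffer pH 9.6), blocked with BSA. Hybridoma supernatants bound 2 hours at room temperature; TMB colour developed about 10 minutes.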
# [2] = target: rat MCP-1 (rat, UniProt P14844 24-148); assay: ELISA, coated antigen
# Chain of rat MCP-1 (P14844 24-148 limits assumed): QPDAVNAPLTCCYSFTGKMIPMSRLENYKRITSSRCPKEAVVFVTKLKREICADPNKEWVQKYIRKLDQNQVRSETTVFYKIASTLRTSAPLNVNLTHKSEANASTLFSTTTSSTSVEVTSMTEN
# Outline: as §1
# [3] = target: T1, recombinant human MCP-2; assay: ELISA, coated antigen
# Outline: as §1
# [4] = target: T6, recombinant human MCP-3 (human, UniProt P80098 24-99); assay: ELISA, coated antigen
# T6 construct: also called rhMCP-3
# T6 sequence (P80098 24-99 limits assumed): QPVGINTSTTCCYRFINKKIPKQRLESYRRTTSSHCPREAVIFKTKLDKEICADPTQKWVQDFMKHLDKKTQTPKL
# Outline: as §1
# [5] = target: T7, recombinant human MCP-4 (human, UniProt Q99616 24-98, limits assumed); assay: ELISA, coated antigen
# T7 construct: also called rhMCP-4
# T7 sequence (Q99616 24-98 limits assumed): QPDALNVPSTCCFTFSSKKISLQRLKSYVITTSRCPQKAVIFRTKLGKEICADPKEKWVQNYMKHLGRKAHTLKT
# Outline: as §1
# [6] = target: T2, human GRO/MGSA; assay: ELISA, coated antigen
# Outline: as §1
# [7] = target: T3, human MIP-1-alpha; assay: ELISA, coated antigen
# Outline: as §1
# [8] = target: T4, human RANTES; assay: ELISA, coated antigen
# Outline: as §1
# [9] = target: T8, human eotaxin (human, UniProt P51671 24-97); assay: ELISA, coated antigen
# T8 construct: also called hEotaxin
# T8 sequence (P51671 24-97 limits assumed): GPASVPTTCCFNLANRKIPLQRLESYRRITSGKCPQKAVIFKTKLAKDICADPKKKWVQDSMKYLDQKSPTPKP
# Outline: as §1
# [10] = target: T9, human monocyte chemo-attractant protein-1 (MCP-1) (human, UniProt P13500 24-99); assay: cell-based or functional assay
# T9 sequence (P13500 24-99): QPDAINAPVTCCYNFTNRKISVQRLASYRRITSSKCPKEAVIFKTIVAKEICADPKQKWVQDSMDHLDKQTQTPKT
# [11] = target: T9, human monocyte chemo-attractant …; assay: Biacore, mAb immobilized, MCP-1 injected; Biacore, 25 C, native MCP-1 injected over immobilized mAb
# Experimental: Determination of anti-MCP-1 antibody affinity using Biacore analysis. The antibody/MCP-1 interaction analysis was performed at 25° C. using two CM5 chips docked in Biacore 3000 optical biosensors. Individual flow cells on each chip were activated with a 7-minute injection of NHS/EDC, carbohydrazide was coupled through the NHS ester using a 7-minute injection, and the residual activated groups were blocked with a 7-minute injection of ethanolamine. The monosaccharide residues of each antibody were oxidized using 1 mM sodium metaperiodate in 100 mM sodium acetate, pH 5.5 at 4° C. for 30 minutes. The oxidized antibody was desalted into 100 mM sodium acetate, pH 5.0, to couple the antibody to the carbohydrazide-modified surface. The mAb surfaces were stabilized by reducing the hydrazone bond with 0.1 M sodium cyanoborohydride. The antigen/antibody interaction was tested by injecting 0, 0.049, 0.15, 0.4, 1.3, 4 and 12 nM of MCP-1 (Peprotech, N.J.) in running buffer (10 mM HEPES, 150 mM NaCl, 0.005% surfactant, 200 μg/ml BSA, pH 7.4). The surfaces were regenerated with a 12-second pulse of 15 mM H₃PO₄. The antigen/antibody interaction was tested by injecting duplicate antigen samples diluted in running buffer (10 mM HEPES, […], 0.005% surfactant, 200 μg/mL BSA, pH 7.4), in a 300-fold concentration range. The surfaces were regenerated with a 12-second pulse of 15 mM H₃PO₄. To determine the kinetics of each interaction, the data sets were fit globally to a 1:1 interaction model that included a parameter for mass transport.
# [12] = target: T9, human monocyte chemo-attractant …; assay: ELISA, coated antigen; ELISA, purified clone 1:50 on coated hMCP-1 (2 ug/mL), cross-reactivity panel
# Experimental: Determining cross-reactivity of anti-MCP-1 antibodies with other chemokines. ELISA plates (Fisher Cat. No. 12-565-136) were coated with 50 μl/well of MCP-1, MCP-2, MCP-3, MCP-4, RANTES, GRO-alpha, MIP-1 alpha, eotaxin, rat MCP-1 and mouse JE (2 μg/ml) in coating buffer (0.1 M carbonate buffer, pH 9.6, NaHCO₃ 8.4 g/L, then incubated at 4° C. overnight. After incubation, the plates were washed with washing buffer (0.05% Tween 20 in PBS) three times. 200 μL/well blocking buffer (0.5% BSA, 0.1% Tween 20, 0.01% Thimerosal in 1×PBS) were added and the plates incubated at room temperature for 1 hour. After incubation, the plates were washed with washing buffer three times. 50 μL/well of hybridoma supernatants, and positive and negative controls (positive control was anti-MCP-1 antibody purchased from R&D Sciences, and negative control was an antibody to Keyhole Limpet Hemocyanin produced at Abgenix) were added and the plates incubated at room temperature for 2 hours. After incubation, the plates were washed three times with washing buffer. […] After incubation, the plates were washed three times with washing buffer and 100 μL/well of TMB (BioFX Lab. Cat. #TMSK-0 100-01) was added and the plates allowed to develop for about 10 minutes.
# [13] = target: T9, human monocyte chemo-attractant …; assay: ELISA, hybridoma supernatant on coated MCP-1; ELISA, hybridoma supernatant on plate-coated non-reduced MCP-1 (2 ug/mL)
# Experimental: Selection of candidate antibodies for ELISA. After 14 days of culture, hybridoma supernatants were screened for MCP-1-specific monoclonal antibodies. The ELISA plates (Fisher, Cat. No. 12-565-136) were coated with 50 μl/well of MCP-1 (2 μg/mL) in Coating Buffer (0.1 M Carbonate Buffer, pH 9.6, NaHCO₃8.4 g/L), then incubated at 4° C. overnight. After incubation, the plates were washed with Washing Buffer (0.05% Tween 20 in PBS) three times. 200 μl/well Blocking Buffer (0.5% BSA, 0.1% Tween 20, 0.01% Thimerosal in 1× PBS) were added and the plates incubated at room temperature for 1 hour. After incubation, the plates were washed with Washing Buffer three times. 50 μL/well of hybridoma supernatants, and positive and negative controls were added and the plates incubated at room temperature for 2 hours.
# The positive control used throughout was XMG2 MCP-1 Group 1, footpad N160-7 and the negative control was XMG2 KLH Group 1, footpad L627-6. After incubation, the plates were washed three times with Washing Buffer. […] In the secondary screen, three sets of samples (positives in first screening) were screened, one set for hIgG detection, one set for hKappa detection, and one set for hlambda detection. After incubation, the plates were washed three times with Washing Buffer. 100 μL/well of TMB (BioFX Lab. Cat. #TMSK-0100-01) were added and the plates allowed to develop for about 10 minutes (until negative control wells barely started to show color), then 50 μL/well stop solution (TMB Stop Solution (BioFX Lab. Cat. #STPR-0100-01) were added and the plates read on an ELISA plate reader at wavelength 450 nm. The OD readings from the positive wells are presented in Table 9.
Binder,ELISA OD [1] [OD450],ELISA OD [2] [OD450],ELISA OD [3] [OD450],ELISA OD [4] [OD450],ELISA OD [5] [OD450],ELISA OD [6] [OD450],ELISA OD [7] [OD450],ELISA OD [8] [OD450],ELISA OD [9] [OD450],IC50 Ca++ Flux [10] [µg/mL],IC50 Chemotaxis [10] [µg/mL],Kd [11] [nM],ELISA OD [12] [OD450],ELISA OD-MCP-1 [13] [OD450]
"anti-MCP-1 mAb 2.4.1 (antibody, V domains shown) VH: QVQLVQSGAEVKKPGASVKVSCKASGYTFTGYYLHWVRQAPGQGLEWMGWINPYNDGTNYAQKFQGRVTMTRDTSISTAYMELSRLRSDDTAVYYCARDIAAAGAVYFDYWGQGTLVTVSS VL: DIQMTQSPSSLSASVGDRVTITCQASQDITTYLNWYQQKPGKAPKLLIYDASNLETGVPSRFSGSGSGTDFTFTISSLQPEDIATYYCQQYDNLPITFGQGTRLEIKR",0.129,0.077,0.045,0.066,0.06,0.048,0.061,0.046,0.084,0.26,> 5,0.014,0.462,3.89
"anti-MCP-1 mAb 1.7.1 (antibody, human IgG2, kappa, V domains shown, also called 1.7.2) VH: QVQLVQSGAEVKKPGASVKVSCKVSGYTLTELSMHWVRQAPGKGLEWMGGFDPEDGETIYAQKFQGRVSMTEDTSTDTAYMELSSLRSEDTAVYFCATNEFWSGYFDYWGQGTLVTVSS VL: not shown",0.041,0.042,0.044,0.053,0.041,0.041,0.04,0.039,0.04,0.11,0.35,0.0049,1.17,3.52
"anti-MCP-1 mAb 2.3.1 (antibody, V domains shown) VH: QVQLVQSGAEVKKPGASVKVSCKVSGYTLTELSMHWVRQAPGKGLEWMGGFDPEDDETIYAQKFQGRVTMTEDTSTHTAYMELSSLRSEDTAVYYCATHDFWSAYFYYWGQGTLVTVSS VL: not shown",0.054,0.058,0.052,0.059,0.064,0.062,0.067,0.055,0.045,0.14,0.58,0.096,–,3.88
"anti-MCP-1 mAb 3.7.1 (antibody, human IgG2, kappa, V domains shown, also called 3.7.2) VH: QVQLVQSGAEVKKPGASVKVSCKVSGYTLTELSMHWVRQTPGKGLEWMGGFDPEDGETIYAQKFQDRVTMTEDTSTDTAYMELSSLRSEDTAVYYCATNDFWTGYYDYWGQGTLVTVSS VL: not shown",0.046,0.048,0.043,0.048,0.048,0.045,0.049,0.067,0.043,0.094,0.98,0.0048,1.28,4
"anti-MCP-1 mAb 1.9.1 (antibody, V domains shown) VH: QVQLVQSGAEVKKPGASVKVSCKVSGYTLTELSMHWVRQAPGKGLEWMGGFDPEDGETINAQKFQGRVTMTEDTSTDTGYMELSSLRSEDTAVYYCATDPGGYSGYFDHWGQGTLVTVSS VL: not shown",0.053,0.065,0.04,0.044,0.042,0.043,0.044,0.042,0.042,1.2,35,0.096,0.446,3.66
